This is an account of results in publication PMC13337110, “Pericentrosomal Redistribution of the Endoplasmic Reticulum Ensures Organelle Symmetric Inheritance and Mitotic Progression” (Advanced Science, 2026).

The target of this test is T1, 2×Strep-HA-RTN4B (human, UniProt Q9NQC3-2 1-373, when from mitotic cells: mitotic phosphorylation sites S15, S107, S111, S121, S129, S152).
T1 construct: Reticulon 4, isoform RTN4B, human; cDNA GenBank NM_153828.3 amplified from a U2OS cDNA library; N-terminal cytoplasmic region 1-185 and C-terminal RHD; Tag ends read from the printed construct name; also called Reticulon 4; 2×Strep-HA-RTN4B wild-type (WT); source: HeLa, stably expressed; not shown: 2×Strep, N-terminal, kept; HA, N-terminal, kept
T1 sequence (looked up): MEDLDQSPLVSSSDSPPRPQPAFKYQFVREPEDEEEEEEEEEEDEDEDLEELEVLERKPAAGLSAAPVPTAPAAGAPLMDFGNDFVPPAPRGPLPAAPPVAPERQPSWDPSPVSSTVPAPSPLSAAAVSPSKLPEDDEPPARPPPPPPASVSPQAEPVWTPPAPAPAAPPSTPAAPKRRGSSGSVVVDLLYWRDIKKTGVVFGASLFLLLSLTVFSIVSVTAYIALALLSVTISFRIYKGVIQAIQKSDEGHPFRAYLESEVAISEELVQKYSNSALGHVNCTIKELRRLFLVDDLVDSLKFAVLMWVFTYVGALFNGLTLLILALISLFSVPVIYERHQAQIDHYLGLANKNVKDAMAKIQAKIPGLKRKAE
Briefly: pull-down; in vitro binding: 2×Strep-HA-RTN4B on Strep-Tactin XT beads incubated with purified GST-Rab11A, 2 h at 4°C; eluted with Strep-Tactin XT elution buffer; Western blot and Coomassie. The following applies: both partners purified.

B1: GST-Rab11A (natural protein, human, UniProt P62491-1 1-216, looked up)
chain: MGTRDDEYDYLFKVVLIGDSGVGKSNLLSRFTRNEFNLESKSTIGVEFATRSIQVDGKTIKAQIWDTAGQERYRAITSAYYRGAVGALLVYDIAKHLTYENVERWLKELRDHADSNIVIMLVGNKSDLRHLRAVPTDEARAFAEKNGLSFIETSALDSTNVEAAFQTILTEIYRIVSQKQMSDRRENDMSPSNNVVPIHVPPTTENKPKVQCCQNI
notes: Rab11A, human; cDNA GenBank NM_004663.5 in pGEX-6P-1; also called Recombinant Rab11A; GST-tagged Rab11A; source: E. coli Rosetta (DE3), purified (Glutathione Sepharose 4B; eluted with reduced glutathione or kept on beads); not shown: GST, N-terminal, kept
With B1, the binding result was “binds”.
